Data on one molecule can be found in PMC11602133.

For this test, the target named is T1, … 3 (SEP3), in vitro produced (Arabidopsis), O22456.
T1 chain: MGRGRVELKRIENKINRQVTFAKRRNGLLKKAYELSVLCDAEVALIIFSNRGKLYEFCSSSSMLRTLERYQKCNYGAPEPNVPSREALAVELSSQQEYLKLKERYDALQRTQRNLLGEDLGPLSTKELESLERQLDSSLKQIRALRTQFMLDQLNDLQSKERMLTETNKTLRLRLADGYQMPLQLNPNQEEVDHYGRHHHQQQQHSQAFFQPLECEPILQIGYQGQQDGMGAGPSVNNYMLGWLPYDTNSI
Briefly: native gel or EMSA; in vitro produced proteins (wheat germ TnT) mixed with a DY-682 labelled ~100 bp DNA probe containing a CArG-box (SAUR10 probe); protein complexes read from the shifted bands on DNA; anti-FLAG antibody added for supershift where FUL-FLAG was used. The note with it: remark: other sources report otherwise. A general note: A gel shift assay detects complexes by their altered migration in electrophoresis.

B1: … 3 (SEP3), in vitro produced, O22456 1-251 (natural protein)
chain: T1 chain
By stoichiometry N is commonly meant the number of molecules, sites or subunits per partner or assembly. Turning to B1, the stoichiometry N amounted to 2.
